Reference: the DeepSol protein solubility set

assay: soluble on expression in E. coli; label from the status in PepcDB or PDB records

| Sequence | soluble on expression in E. coli |
| --- | --- |
| MTSNDADIKATVCVVTYNQVEYIEQCLQSLIDQITNFEFEIIVGDDFSTDGTRRIVEDFQRKYPHVIKPIFHSRNVGAAVNFNAVHGSARGKFVAHVDGDDYMLPNKLRSQVDFMERNPNCNISWHRMYVSYGSNIKEDLLDLNNFRQLCFTRADILKFITIGMNSSKMYRAETMNFQRPDFPMLDYFANVEQIGDGQACFISSEPLGVYRAGIGIAKNDFRVKEALNSSFLYFLSKYPKLSNEINQSVLLLLLMAFKNRRYTELSLFLKVYLKSFSFFTPWKLYKDYEFIKMLRLPKLEHHHHHH | not soluble |
| MDEFVKGLMKNGYLITPSAYYLLVGHFNEGKFSLIELIKFAKSRETFIIDDEIANEFLKSIGAEVELPQEIKEGYISTGEGSQKVPDHEELEKITNESSVESSISTGETPKTEELQPTLDILEEEIGDIEGGESSISTGDEVPEVENNNGGTVVVFDKYGYPFTYVPEEIEEELEEYPKYEDVTIEINPNLEVVPIEKDYEIKFDVRRVKLKPPKVKSGSGKEGEIIVEAYASLFRSRLRKLRRILRENPEVSNVIDIKKLKYVKGDEEVTIIGLVNSKKETSKGLIFEVEDQTDRVKVFLPKDSEDYREALKVLPDAVVAFKGVYSKRGIFFANRFYLPDVPLYRKQKPPLEEKVYAVLTSDIHVGSKEFCEKAFIKFLEWLNGYVESKEEEEIVSRIRYLIIAGDVVDGIGIYPGQYSDLIIPDIFDQYEALANLLSNVPKHITIFIGPGNHDAARPAIPQPEFYEEYAKPLYKLKNTVIISNPAVIRLHGRDFLIAHGRGIEDVVSFVPGLTHHKPGLPMVELLKMRHLAPTFGGKVPIAPDPEDLLVIEEVPDLVQMGHVHVYDTAVYRGVQLVNSATWQAQTEFQKMVNIVPTPGLVPIVDVESARVIKVLDFSRWC | soluble |
| MNQKMIIGNAEAICLPELGITHLEARIDTGAQTSSLHVDNIDCFEKDGQSYVAFDLHPDVYHLEQVVRCTAKLKANRKVKSSNGTFEHRCVITTMLRLGDQEWPIDITLTNREKMTYMMLLGRQGMADKVLVDPSQSHLLAS | not soluble |
| SASFVGTPLPESENISLYQSRVTVAELEMLASRFVGRTRVKVAFQAYWSQQREELLPNQQAPSSLIRHTERVLAGVFGASSAKLVLTSALQGRNMQLEEVATIVDEAS | not soluble |
| MEVEIKFKIKLEDFLHTLNTFNPEFVRYEEQEDVYFEVPRPKLLRIRGVHNLKKYYLTFKEILDENNEEFYEVEFEIGDFEKAVEVFKRLGFKIQATIKKKRWVYKLNGVTLEVNRVEGIGDFVDIEVISDSPEEAKEKIWEVAKMLGLKEEDVEPRLYLELINELSGRSSLEHHHHHH | soluble |
| MSLRFVDDEGHYNVSFFHVNDVHAHLDQFASSGTSCDDPEKGCYGGYARIKTKVTELREQYPDNLWLNAGDEFQGTLFYTYYGGEKIAETLNELKFDAMTLGNHEWDGGDEALGQFLLNLTFPIVSCNVKSEVESLNETIKNYHIFEEHEIAVIGATTTTTPGISSVGNTTTFLDPVAEVQKAVWQIRNETEVNRIILLSHLGYEEDQDLAAKTEGISLIIGGHSHTLLGDMEDAKGDYPTMVEDLNGHEVFIVTAYRWGEYLGAIDLTFDDDGHALAYHGAPIHMDNSTSLDEELDTKIQGWAEAFADFAAEVLGETDAVLVQETCQEGDCLLGQVMADAMYEYRYNQTEGTDDEPALALINSGGVRAEINEGPITRGEVLTAFPFGNAIVELEFSGADLRKILEGAVSYVNQFNGDEITSWFQVSRGVRIEFNPDNEPGDRLVNVTIQGEAIDDERDYRVVTLDFLAGGGDSIFVATDDFITLDTQDEVLTQYIVARTPLSPELEERVVENDGEGHHHHHH | soluble |
| MNLGQTLVGIATWPARAGLAAADTGLNMAGAAVDMAKQALGDAGGASGSTSMANMLGIDDTIARANRLARLLDDDMPLGRAIAPNGPMDRMLRPGGVVDLLTQPGGLLDRLTAEGGAMQRALQPGGLADQLLAEDGLIERVLSEDGLADRLLAEGGLIDKITAKDGPLEQLADVADTLARLTPGMEALEPAIATLQDAVIALTMVVNPLSSIAERIPLPGRRPARRSSSRSVRSQRVVDSE | not soluble |
| SREIDYTAYPWFAGNMERQQTDNLLKSHASGTYLIRERPAEAERFAISIKFNDEVKHIKVVEKDNWIHITEAKKFDSLLELVEYYQCHSLKESFKQLDTTLKYPY | soluble |
| GAMGMTTYLEFIQQNEERDGVRFSWNVWPSSRLEATRMVVPVAALFTPLKERPDLPPIQYEPVLCSRTTCRAVLNPLCQVDYRAKLWACNFCYQRNQFPPSYAGISELNQPAELLPQFSSIEYVVLRGPQMPLIFLYVVDTCMEDEDLQALKESMQMSLSLLPPTALVGLITFGRMVQVHELGCEGISKSYVFRGTKDLSAKQLQEMLGLSKVPVTQATRGPQVQQPPPSNRFLQPVQKIDMNLTDLLGELQRDPWPVPQGKRPLRSSGVALSIAVGLLECTFPNTGARIMMFIGGPATQGPGMVVGDELKTPIRSWHDIDKDNAKYVKKGTKHFEALANRAATTGHVIDIYACALDQTGLLEMKCCPNLTGGYMVMGDSFNTSLFKQTFQRVFTKDMHGQFKMGFGGTLEIKTSREIKISGAIGPCVSLNSKGPCVSENEIGTGGTCQWKICGLSPTTTLAIYFEVVNQHNAPIPQGGRGAIQFVTQYQHSSGQRRIRVTTIARNWADAQTQIQNIAASFDQEAAAILMARLAIYRAETEEGPDVLRWLDRQLIRLCQKFGEYHKDDPSSFRFSETFSLYPQFMFHLRRSSFLQVFNNSPDESSYYRHHFMRQDLTQSLIMIQPILYAYSFSGPPEPVLLDSSSILADRILLMDTFFQILIYHGETIAQWRKSGYQDMPEYENFRHLLQAPVDDAQEILHSRFPMPRYIDTEHGGSQARFLLSKVNPSQTHNNMYAWGQESGAPILTDDVSLQVFMDHLKKLAVSSAA | soluble |
| SVTSSQVMLMPAHDSAKPTGFGIMVTSLDLLRDHQKVIHTLWFIDDVVARELGGFDGFCRRERVLLLFVDSTNTTLSFTRNDMTCVPRQGGADSDHWLFKRHLALLLPLSFAQVYEGFISFYEEEDKHISWDIKSCSSSSHQ | not soluble |
| MGSDKIHHHHHHMKIIILGAGQVGGTLAENLVGENNDITIVDSDKNKLRSLQDKYDLRVVVGHGAHPDVLREAGAEDADMLIAVTNSDECNMSACQIAYTLFGTPTKIARIRSEQYLHMQERLFIDSETKNSDNRTRGGFVIDELIAPEQLVTSYIQRLVEYPGALQVLEFAEGKLSLVAVRAYYGGPLVGNALAALREHMPNIDTRVAAIFRQGRPIMPRGTTIIEADDEVFFVADSRHIRAVMSEMQKLDNSYRNIMIAGGGNIGLGLAKKLERNHSVKLIEHKAERAEALSEKLQNTTVFCGDASDQELLLEEHIDQTDVFIAVTNDDEANIMSALLAKRMGAKKVMVLIQREAYVDIVQEANIDIAISPQQATISALLTHIRQGDICNVYSLRRGAAEAIEAIAHGDPSTSKVVGKQIGEIRLPPGTTIGAIVRNDEVLMAHDKTVIEQGDHVILFLVNKKFIGEVERLFQPSAFFF | not soluble |
| MRVGIVGAGPAGVAAAVFLRRYNVHVTVFEKNRVGGLLRNAHLVENIPVLPPASGEEICKTLEKRLFESGAELIWEEVVKVENEKILTEREIHSFDYVIVASGTIPRRIPEFEVSEKVVYEFIDLPEFEKLAIYGAGDAAFDSALNALVRGKEVHLFNRGSRIRALPLLVERAKKYEKFYYHERCPILKVEEESKMVKLKTEHGVFTFDALLLSVGRLPNTSFVEPGERNFIVGDARGGFRQVSIAMGSAIETAMEILRREGTVSATLPLKEGLLNPNGEHQAG | soluble |
| MSLSKMEINKRALKENMALLACPICGEAFEFKEPQSFVCLEGHGFDIAKPGYVHLLKQAHKTKYDQALFESRKKVIASGFFEKLIERVTEIIAEKKKEQLVLYDAGCGEGSHLARVVSNLQATGVNVQAVGLDIAKEGVKQAARDYPGTSWTVADLANCPNQAETADVILNILSPSNYVEFKRLLKKDGFLLKVVPEANYLRELREFIYVDEKSSYSNESVTSRLAEKLSVEHVERVTYKAPIAKELFADFLEMTPLGWHIEADKKSELLGNPPEELTVDLQIIIANRAHLLEGHHHHHH | soluble |
| MDDIIQQLFKEVERPQLTVNEQALQQYLYREIVRLTLLVEPTISKPQIIGLLSALVKKARHYVNADNQAECIQQLLDLVYQEWRFHCDYQEYFYTDNLLLHRVIRSHRGMPLSIGAIVLYLAAKLQLPIYPVNFPTQLILRAEITESSGKKTVRFINPWDGQFLPLELLLKWLEGEVGYGVELSPELLRRADPAELLERVETVFKMVLTREGKYEQTLRLIEYRLAENPDDPYEIRDRGMVLASMDCYQAAYDDLSYFIDQCPDDPSAAILKSEVKGLEQKSKQNQVHLEHHHHHH | soluble |
| MSLFHDVRFPVSLSFGARGGPERRTEIVTLANGAEERNTPWAHSRRRFDAGMGLRSLDDLETVIAFFEARAGQMHAFRWKDWSDFKSCRPSASPAPTDQLLGMGDETTATFQLVKHYGTGGDTYARPITRPVAGTVQVAVGGSPVTEGVEWSVDTATGMVTFTHPPDVGGEVTAGFEFDVPVRFDTDRIETSLASFNAGEVPDLPVVEVRPEGHHHHHH | soluble |
| MHHHHHHSSGLVPRGSGMKETAAAKFERQHMDSPDLGTDDDDKMKLQSPEFQSLFTEGLKSLTELFVKENHELRIAGGAVRDLLNGVKPQDIDFATTATPTQMKEMFQSAGIRMINNRGEKHGTITARLHEENFEITTLRIDVTTDGRHAEVEFTTDWQKDAERRDLTINSMFLGFDGTLFDYFNGYEDLKNKKVRFVGHAKQRIQEDYLRILRYFRFYGRIVDKPGDHDPETLEAIAENAKGLAGISGERIWVELKKILVGNHVNHLIHLIYDLDVAPYIGLPANASLEEFDKVSKNVDGFSPKPVTLLASLFKVQDDVTKLDLRLKIAKEEKNLGLFIVKNRKDLIKATDSSDPLKPYQDFIIDSREPDATTRVCELLKYQGEHCLLKEMQQWSIPPFPVSGHDIRKVGISSGKEIGALLQQLREQWKKSGYQMEKDELLSYIKKT | soluble |
| MAIALVTGGSRGIGRATALLLAQEGYTVAVNYQQNLHAAQEVMNLITQAGGKAFVLQADISDENQVVAMFTAIDQHDEPLAALVNNAGILFTQCTVENLTAERINRVLSTNVTGYFLCCREAVKRMALKNGGSGGAIVNVSSVASRLGSPGEYVDYAASKGAIDTLTTGLSLEVAAQGIRVNCVRPGFIYTEMHASGGEPGRVDRVKSNIPMQRGGQAEEVAQAIVWLLSDKASYVTGSFIDLAGGK | not soluble |
| MTHALLIGNPNCGKTTLFNALTNANQRVGNWPGVTVEKKTGEFLLGEHLIEITDLPGVYSLVANAEGISQDEQIAAQSVIDLEYDCIINVIDACHLERHLYLTSQLFELGKPVVVALNMMDIAEHRGISIDTEKLESLLGCSVIPIQAHKNIGIPALQQSLLHCSQKIKPLKLSLSVAAQQILNDLENQLISKGYKNSFAYYFSRRLAEGDTLIGEKAFTESLLIKLQETEQNLDVLLADARYQKIHEIVTLVQKK | soluble |
| MSLPREKVVRVWDEREVVYSPKRWRILWEKREKALKIMELLKDFDPHVYGSVARGDVRRDSDIDIVIPYRVPSYLIELALGDLIQRRRIVMATPWHLIKGHIEIDEETTVTFFLVDPTDRELEFYKWGGMLDLWGVKTKQRVPGVNKKLILIIPTDKGHIEREVVGREAEVAKILGVSVDIVEERVKVLTRRDRIGRTGIYLDEEVPDWKSFEEFLKELADRDPNIRRRVRESLEGHHHHHH | not soluble |
